Our source for the Kd values is article PMC6385242, “Identification and characterization of a factor Va-binding site on human prothrombin fragment 2” (Scientific Reports, 2019).

The target in the experiment is T1, Wild-type prothrombin (human, UniProt P00734 44-622).
T1 construct: prothrombin, human
Nature of the experiment: SPR; Biacore T200; FVa amine-coupled on a CM5 chip (8000-9000 RU); prothrombin 0-10,000 nM injected for 60 s at 30 uL/min; HBS (0.02 M HEPES, 0.15 M NaCl, pH 7.4) with 5 mM CaCl2 and 0.01% Tween-80; kinetic 1:1 Langmuir model. Conditions: both partners purified. On the technique in general: In SPR one partner is held on a chip, and binding of the other changes the refractive index at the surface.

B1: Factor Va (complex)
heavy: AQLRQFYVAAQGISWSYRPEPTNSSLNLSVTSFKKIVYREYEPYFKKEKPQSTISGLLGPTLYAEVGDIIKVHFKNKADKPLSIHPQGIRYSKLSEGASYLDHTFPAEKMDDAVAPGREYTYEWSISEDSGPTHDDPPCLTHIYYSHENLIEDFNSGLIGPLLICKKGTLTEGGTQKTFDKQIVLLFAVFDESKSWSQSSSLMYTVNGYVNGTMPDITVCAHDHISWHLLGMSSGPELFSIHFNGQVLEQNHHKVSAITLVSATSTTANMTVGPEGKWIISSLTPKHLQAGMQAYIDIKNCPKKTRNLKKITREQRRHMKRWEYFIAAEEVIWDYAPVIPANMDKKYRSQHLDNFSNQIGKHYKKVMYTQYEDESFTKHTVNPNMKEDGILGPIIRAQVRDTLKIVFKNMASRPYSIYPHGVTFSPYEDEVNSSFTSGRNNTMIRAVQPGETYTYKWNILEFDEPTENDAQCLTRPYYSDVDIMRDIASGLIGLLLICKSRSLDRRGIQRAADIEQQAVFAVFDENKSWYLEDNINKFCENPDEVKRDDPKFYESNIMSTINGYVPESITTLGFCFDDTVQWHFCSVGTQNEILTIHFTGHSFIYGKRHEDTLTLFPMRGESVTVTMDNVGTWMLTSMNSSPRSKKLRLKFRDVKCIPDDDEDSYEIFEPPESTVMATRKMHDRLEPEDEESDADYDYQNRLAAALGIR
light: SNNGNRRNYYIAAEEISWDYSEFVQRETDIEDSDDIPEDTTYKKVVFRKYLDSTFTKRDPRGEYEEHLGILGPIIRAEVDDVIQVRFKNLASRPYSLHAHGLSYEKSSEGKTYEDDSPEWFKEDNAVQPNSSYTYVWHATERSGPESPGSACRAWAYYSAVNPEKDIHSGLIGPLLICQKGILHKDSNMPMDMREFVLLFMTFDEKKSWYYEKKSRSSWRLTSSEMKKSHEFHAINGMIYSLPGLKMYEQEWVRLHLLNIGGSQDIHVVHFHGQTLLENGNKQHQLGVWPLLPGSFKTLEMKASKPGWWLLNTEVGENQRAGMQTPFLIMDRDCRMPMGLSTGIISDSQIKASEFLGYWEPRLARLNNGGSYNAWSVEKLAAEFASKPWIQVDMQKEVIITGIQTQGAKHYLKSCYTTEFYVAYSSNQINWQIFKGNSTRNVMYFNGNSDASTIKENQFDPPIVARYIRISPTRAYNRPTLRLELQGCEVNGCSTPLGMENGKIENKQITASSFKKSWWGDYWEPFRARLNAQGRVNAWQAKANNNKQWLEIDLLKIKKITAIITQGCKSLSSEMYVKSYTIHYSEQGVEWKPYRLKSSMVDKIFEGNTNTKGHVKNFFNPPIISRFIRVIPKTWNQSIALRLELFGCDIY
notes: heavy chain of factor Va; light chain of factor Va; Bovine FVa is named only for the preparation of the heavy chain for NMR; the source of the FVa of the other experiments is in the Supplementary Materials; also called FVa
One may read the Kd as the concentration at which binding is half-saturated. High values mean lower affinity, low ones higher affinity. The molecule B1 gave a dissociation constant Kd of 1000 nM.
